Reference: the supplement of paper PMC11136658

Tested on: peptide library, one residue held at a place counted from the Y acceptor
Assay: relative phosphorylation of the sub-library (ratio to the mean residue at this position); higher = residue favoured
Outline: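 Purified recombinant kinases were incubated for 90 min in 384-well plates with biotinylated Tyr-centred peptide library mixtures, each fixing one residue at one position from −5 to +5, plus 50 μM ATP with γ-32P-ATP. Peptides were captured on streptavidin membranes, rinsed and quantified by phosphorimaging and ImageQuant. Intensities were normalized per position by the sum of the 18 (or 16, Ser/Thr-free library) randomized residues and multiplied by that number. Values give phosphorylation relative to the mean randomized residue.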

DDR2, construct: aa522-end, human, sequence (Q16832 522-855, looked up): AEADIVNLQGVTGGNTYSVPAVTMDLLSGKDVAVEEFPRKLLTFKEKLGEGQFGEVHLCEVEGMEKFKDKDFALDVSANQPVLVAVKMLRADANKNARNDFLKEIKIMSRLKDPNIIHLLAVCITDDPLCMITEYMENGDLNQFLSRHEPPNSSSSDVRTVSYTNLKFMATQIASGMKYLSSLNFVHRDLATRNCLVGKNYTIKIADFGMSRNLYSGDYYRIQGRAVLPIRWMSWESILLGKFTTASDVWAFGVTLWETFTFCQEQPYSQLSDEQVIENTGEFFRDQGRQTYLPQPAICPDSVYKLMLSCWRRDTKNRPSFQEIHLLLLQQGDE

DDR2, construct: aa522-end, human (from UniProt Q16832)
relative phosphorylation
Conditions | at +1 | at +2 | at +3 | at +4 | at +5 | at -1 | at -2 | at -3 | at -4 | at -5
A fixed | 2.33 | 0.781 | 0.51 | 0.457 | 0.507 | 1.2 | 0.969 | 0.938 | 0.924 | 1.1
D fixed | 0.221 | 0.71 | 0.309 | 1.13 | 0.445 | 1.83 | 0.707 | 0.692 | 0.688 | 0.848
E fixed | 0.206 | 1.66 | 0.283 | 1.36 | 0.393 | 0.583 | 0.635 | 0.567 | 0.724 | 0.771
F fixed | 0.905 | 0.738 | 1.38 | 2.06 | 2.29 | 0.517 | 0.358 | 1.13 | 0.728 | 0.723
G fixed | 0.361 | 0.37 | 0.296 | 0.372 | 0.632 | 0.617 | 1.19 | 1.09 | 1.43 | 1.38
H fixed | 0.894 | 0.92 | 0.901 | 1.63 | 0.817 | 1.14 | 1.58 | 1.82 | 1.29 | 1.17
I fixed | 1.13 | 1.08 | 3.3 | 1.09 | 2.43 | 0.879 | 0.316 | 0.472 | 0.627 | 0.548
K fixed | 0.899 | 0.687 | 0.35 | 0.56 | 0.607 | 0.653 | 1.85 | 1.44 | 1.6 | 1.42
L fixed | 0.602 | 1.42 | 1.94 | 0.851 | 1.4 | 0.828 | 0.449 | 0.466 | 0.581 | 0.702
M fixed | 1.12 | 1.3 | 2.09 | 0.824 | 1.08 | 0.593 | 0.597 | 0.534 | 0.933 | 0.787
N fixed | 0.502 | 1.03 | 0.365 | 1.05 | 0.747 | 2.72 | 1.66 | 1.3 | 0.985 | 1.01
P fixed | 0.745 | 0.655 | 0.306 | 0.383 | 0.962 | 1.57 | 1.55 | 1.15 | 1.52 | 1.45
Q fixed | 0.823 | 0.933 | 0.505 | 1.02 | 0.56 | 0.829 | 1.1 | 0.917 | 1.01 | 0.996
R fixed | 1.38 | 0.825 | 0.49 | 0.88 | 0.861 | 0.656 | 2.03 | 1.96 | 1.89 | 1.67
S fixed | 1.04 | 1.14 | 0.464 | 0.701 | 0.586 | 0.989 | 1.21 | 0.968 | 0.876 | 1.02
T fixed | 1.54 | 1.18 | 0.991 | 0.855 | 0.688 | 1.11 | 1.03 | 0.906 | 0.858 | 0.905
V fixed | 2.79 | 1.32 | 1.95 | 1.02 | 1.76 | 0.839 | 0.372 | 0.553 | 0.651 | 0.73
W fixed | 0.511 | 1.24 | 1.58 | 1.76 | 1.24 | 0.438 | 0.383 | 1.1 | 0.679 | 0.754
pThr fixed | 0.698 | 1.61 | 0.5 | 1.87 | 0.616 | 0.706 | 0.487 | 0.467 | 0.612 | 0.696
pTyr fixed | 0.68 | 2.07 | 0.439 | 2.16 | 0.38 | 0.474 | 0.473 | 0.614 | 0.613 | 0.75

EGFR, construct: aa668-end, human (from UniProt P00533)
relative phosphorylation
Conditions | at +1 | at +2 | at +3 | at +4 | at +5 | at -1 | at -2 | at -3 | at -4 | at -5
A fixed | 0.795 | 0.684 | 0.702 | 0.943 | 1.08 | 0.639 | 1.08 | 0.898 | 1.14 | 0.991
D fixed | 0.496 | 1.29 | 1.17 | 1.09 | 1.12 | 2.93 | 1.74 | 2.12 | 1.58 | 1.34
E fixed | 0.948 | 1.95 | 1.08 | 1.42 | 1.06 | 2.35 | 1.92 | 2.39 | 1.59 | 1.2
F fixed | 2.04 | 1.23 | 1.06 | 0.967 | 1.06 | 0.716 | 0.637 | 0.848 | 1.01 | 0.989
G fixed | 0.246 | 0.422 | 0.884 | 1.19 | 1.11 | 0.487 | 1.09 | 1.03 | 1.1 | 1.24
H fixed | 1.4 | 0.836 | 0.882 | 1.08 | 0.904 | 0.988 | 0.813 | 0.949 | 0.77 | 0.989
I fixed | 1.85 | 1.12 | 1.72 | 0.823 | 0.785 | 1.77 | 0.862 | 0.601 | 0.801 | 0.955
K fixed | 0.26 | 0.498 | 0.34 | 0.895 | 0.935 | 0.315 | 0.605 | 0.561 | 0.789 | 0.794
L fixed | 0.988 | 0.964 | 1.51 | 0.756 | 0.918 | 1.07 | 0.831 | 0.748 | 0.992 | 1
M fixed | 0.826 | 1.03 | 1.02 | 1.11 | 0.902 | 0.757 | 0.821 | 0.776 | 0.855 | 0.96
N fixed | 0.383 | 1.01 | 0.61 | 0.783 | 0.881 | 1.09 | 1.06 | 1.2 | 0.917 | 1.1
P fixed | 0.313 | 0.623 | 0.824 | 1.1 | 1.66 | 0.721 | 1.11 | 0.934 | 1.1 | 1.07
Q fixed | 0.804 | 0.905 | 0.941 | 0.969 | 0.827 | 0.768 | 1.13 | 0.881 | 1.08 | 0.954
R fixed | 0.299 | 0.685 | 0.665 | 0.978 | 0.825 | 0.317 | 0.575 | 0.586 | 0.763 | 0.87
S fixed | 0.762 | 0.843 | 0.79 | 0.931 | 1.14 | 0.546 | 1.13 | 0.995 | 0.827 | 0.88
T fixed | 1.09 | 0.907 | 0.956 | 0.964 | 0.913 | 0.784 | 0.923 | 0.935 | 0.672 | 0.802
V fixed | 2.64 | 1.05 | 1.47 | 0.88 | 0.899 | 1.16 | 0.979 | 0.7 | 0.825 | 0.851
W fixed | 1.85 | 1.96 | 1.37 | 1.12 | 0.981 | 0.598 | 0.708 | 0.843 | 1.19 | 1
pThr fixed | 1.41 | 1.5 | 0.796 | 1.02 | 1.08 | 2.05 | 1.57 | 1.61 | 1.41 | 1.2
pTyr fixed | 11.9 | 5.31 | 0.921 | 1.45 | 1.01 | 5.3 | 2.06 | 2.19 | 2.18 | 1.69
